To fix the notation:
B1: G001_gp1_V10_VRC01c_2021-0088 (antibody, V domains shown)
VH: QVQLVQSGAEVKKPGASVKVSCKASGYTFTGYYMHWVRQAPGQGLEWMGWINPNSGGTNYAQKFQDWVTMTRDTSISTAYMELSRLRSDDTAVYFCARVKGHYDSSGGWNFDLWGRGTLVTVSS
VL: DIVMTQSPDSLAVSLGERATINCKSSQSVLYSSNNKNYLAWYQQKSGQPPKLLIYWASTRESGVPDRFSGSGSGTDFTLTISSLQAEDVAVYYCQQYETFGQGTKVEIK
B2: G001_gp1_V10_VRC01c_164 (antibody, V domains shown)
VH: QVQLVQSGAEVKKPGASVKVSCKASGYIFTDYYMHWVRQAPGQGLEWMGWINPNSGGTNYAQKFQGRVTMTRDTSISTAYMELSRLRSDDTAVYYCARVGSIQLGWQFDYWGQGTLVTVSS
VL: EIVMTQSPATLSVSPGERATLSCRASQSVSSNLAWYQQIPGQAPRLLIYGTSTRATGIPARFSGSGSGTEFTLTISSLQSEDFAVYYCQQYETFGQGTKLEIK
B3: G001_gp1_V10_VRC01c_2021-0086 (antibody, V domains shown)
VH: not shown
VL: EIVMTQSPATLSVSPGERATLSCRASQSVSSNLAWYQQKPGQAPRLLIYGASTRATGIPARFSGSGSGTEFTLTISSLQSEDFAVYYCQQYQTFGQGTKLEIK
B4: G001_gp1_V10_VRC01c_2021-0093 (antibody, V domains shown)
VH: QVQLVQSGAEVHNPGASVKVSCKASGYTFSDHYIHWVRQAPGQGLEWMGWINPNSGGTNYAQKFQGWVSMTRDTSITTAYMELSRLRSADTAVYYCAIPGICPGGNCYSYYFDSWGQGTLVSVSS
VL: EIVLTQSPGTLSVSPGERATLSCRSSQSVSSLAWYQLKPGQAPRLLIYGAYNRAIGIPDRFSGSGSGTDFTLTISRLEPEDLAVYYCQQYEFFGQGTKLEIK
B5: G001_gp1_V10_VRC01c_2021-0090 (antibody, V domains shown)
VH: not shown
VL: DNQMTQSPSSLSASVGDRVTITCRASQGISNSLAWYQQKPGKAPKLLLYASSRLESGVPSRFSGSGSGTDYTLTISSLQPEDFATYYCQQYETFGQGTKVEIK
B6: G001_gp1_V10_VRC01c_182 (antibody, V domains shown)
VH: QLQLVQSGAEVKKPGASVKVSCQASGFTFSGHYMHWVRQAPGHGLEWMGWINTNSGGTNYARKFQGRVTMTRDTSISTAYMELSRLRSDDTAVYYCATSVWFGASVWNFDNWGQGSLVTVSS
VL: ENVLTQSPATLSLSPGERATLSCRASQSVSTHNLAWYQQKPGQAPRLLIYGVFSRATGIPDRFSGSGSGTDFTLTISSLEPEDTAVYYCQQYETFGQGTNVEIK
B7: G001_gp1_V10_VRC01c_162 (antibody, V domains shown)
VH: QVQLVQSGAEVKNPGASVKVSCKASGYTFSGYYMHWVRQAPGQGLEWMGWINPNSGGTNYAQKFQGRVTMTRDTSISTAYMALSRLRSDDTAVYYCARPAPYDSSGYNWGYWGQGTLVTVSS
VL: DIQMTQSPSTLSASVGDRVTITCRASQSMNNWLAWYQQKPGKAPKLLIYKASTLESGVPSRFSGSGSGTEFTLTISSLQPDDFATYYCQQYETFGQGTKVEVK
B8: G001_gp1_V10_VRC01c_177 (antibody, V domains shown)
VH: not shown
VL: DIQMTQSPSTLSASVGDRVTITCRASQTISSWLAWYQQKPGKAPKLLIYDASSLESGVPSRFSGSGSGTEFTLTITSLQPDDFATYYCQQYETFGPGTKVDIK
B9: G001_gp1_V10_VRC01c_173 (antibody, V domains shown)
VH: QVQLVQSGADVKKPGASVKVSCKASGYTLTGYYMHWVRQAPGQGLEWMGWINANSGGTNYAQKFQGRVTMTRDTSISTVYMELSRLRSDDTAVYYCAHRAGYCSGGGCSWYFDLWGRGTLVTVSS
VL: DIQMTQSPSTLSASVGDRVTITCRASQSSSGWLAWYQQKPGKAPKLLIYKASSLESGVPSRFSGSGSGTEFTLTISSLQPDDFATYYCQQYEAFGQGTKVEIK
B10: G001_gp1_V10_VRC01c_169 (antibody, V domains shown)
VH: QVHLVQSGAEVKKPGASVKVSCKASGYTFTDDYIHWLRQAPGQGLEWMGWINPYSGGTNYAQKFQGRVTMTRDTSINTAYMELSRLRSDDTAVYYCARYQSTFYFDYWGQGTLVTVSS
VL: DFQMTQSPSTLSASVGDRVTITCRASQSLSSWLAWYQQKPGKAPKLLIYKASSLESGVPSRFSGSGSGTEFTLTISSLQPDDSATFYCQQYETFGQGTKLEIK
B11: G001_gp1_V10_VRC01c_163 (antibody, V domains shown)
VH: not shown
VL: DIVMTQSPDSLAVSLGERATINCKSSQSVYYSSNKKNYLAWYQQKPGQPPKLLIYWTSTRESGVPDRFSGSGSGTDFTLTISSLQAEDVAVYYCQQYWTFGQGTKVEIK
B12: G001_gp1_V10_VRC01c_166 (antibody, V domains shown)
VH: not shown
VL: DIQMTQSPSSLSASVGDRVTITCQASQDISNYLNWYQQKPGKAPKLLIYDASNLETGVPSRFSGSGSGTDFTFTISSLQPEDIATYYCQQYNTFGQGTKLEIK
B13: G001_gp1_V10_VRC01c_168 (antibody, V domains shown)
VH: QVQLVQSGAEVKKPGASVKVSCKASGYTFTGYHIHWVRQAPGQGLEWMGWINPNSGGTNYARKFQGRVTMTRDTSISTAYMELSRLNSDDTAVYYCAFPLGIRTTGRSWYFDLWGRGTLVTVSS
VL: DIQMTQSPSSLSASVGDRVTITCQASQDISNYLNWYQQKPGKAPKILIYDASNLETGVPSRFRGSGSGTDFTFTISSLQPEDIATYYCQQYETFGGGTKVEIK
B14: G001_gp1_V10_VRC01c_174 (antibody, V domains shown)
VH: QVQLVQSGAEVKKPGATVKVSCKASGYTLTDYYMHWVRQAPGQGLEWMGWMNPNSGGTNYGRKFQGRVTMTRDTSINTAYMELSRLRSDDTAVYFCARAREKWPFDYWGQGTLVTVSS
VL: DIQMTQSPASLSASVGDRVTITCQASQDISNYVNWYQQKPGKAPKLLINGASNLETGVPSRFSGSGSGTDFTFTISSLQPEDIATYYCQQYENFGPGTKVDIK
B15: G001_gp1_V10_VRC01c_176 (antibody, V domains shown)
VH: QVQLVQSGAEVKRPGASVKVSCRASGYTFTGYYMHWVRQAPGQGLEWMGWINPNSGGTNYAQKFQGRVTMTRDTSITTAYMELSRLNYDDTAVYYCARGDDSSAWRFHSWGQGTLITVSS
VL: DIQMTQSPSSLSASVGDRVTITCQASQDSSNYLNWYQQKPGKAPKLLIYDASNLETGVPSRFSGSGSGTDFTFTISSLQPEDIATYYCQQYETFGGGTKVEIK
B16: G001_gp1_V10_VRC01c_175 (antibody, V domains shown)
VH: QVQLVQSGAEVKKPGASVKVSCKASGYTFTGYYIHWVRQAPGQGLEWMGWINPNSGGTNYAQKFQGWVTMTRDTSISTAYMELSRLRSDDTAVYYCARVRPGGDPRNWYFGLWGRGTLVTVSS
VL: DIQMTQSPSSLSASVGDRVTITCQASQDISNYLNWYQQKPGKAPKLLIYDASNLETGVPSRFSGSGSGTDFTFTISSLQPEDIATYYCQQWDTFGQGTKLEIK
B17: G001_gp1_V10_VRC01c_181 (antibody, V domains shown)
VH: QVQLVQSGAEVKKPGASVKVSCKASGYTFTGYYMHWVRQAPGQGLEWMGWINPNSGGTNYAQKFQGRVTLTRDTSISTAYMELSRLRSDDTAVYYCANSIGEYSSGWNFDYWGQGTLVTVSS
VL: DIQMTQSPSSLSASVGDRVTITCQASQDISNYLNWYQQKPGKAPKLLIYYASNLETGVPSRFSGSGSGTDFTFTISSLQPEDIATYYCQQYGTFGQGTKLEIK
B18: G001_gp1_V10_VRC01c_2021-0094 (antibody, V domains shown)
VH: QVQLVQSGAEVKKPGASVKVSCKASGYTFTGYYMHWVRQAPGQGLEWMGWINPNSGGTNYAEKFQGWVTMTRDTSISTAYMELRRLKSDDTAVYYCATSLGGNPGRIWDMDVWGQGTTVTVSS
VL: QSALTQPASVSGSPGQSITISCTGTSSDVGGYNFVSWYQQHPGKAPKLIIYDVTNRPSGVSNRFSGSKSGNTASLTISGLQAEDEANYYCSSYEVFGTGTKVTVL
B19: G001_gp1_V10_VRC01c_167 (antibody, V domains shown)
VH: QVQLVQSGAEVKKPGASVKVSCKASGYTFTGYYMHWVRQAPGQGLEWMGWINPNSGGTNYAQKFQGRVTMTRDTSITTAYMELTRLISDDTAVYYCASPASIPAAGSFAFDIWGQGTMVTVSS
VL: EIVLTQSPGTLSLSPGERATLSCRASQSVGSSYLTWYQQKPGQAPRLLIYGASSRATGIPDRFSGSGSGTDFTLTISGLEPEDFAVYYCQQYETFGQGTKVEIK
B20: G001_gp1_V10_VRC01c_170 (antibody, V domains shown)
VH: QVQLVQSGAEVKKPGASVKVSCKASGYTFTDYYMHWVRQAPGQGLEWMGWINPNSGGTNYAQKFQDRVTMTRDTSISTGYMELRRLRSDDTAVYYCASHHLTSQGPWWFDPWGQGTLLTVSS
VL: EIVLTQSPGTLSLSPGERATLSCRASQSVSSSYLVWYQQKPGQAPRLLIYGASSRATGIPDRFSGRGSGTDFTLTISRLESEDFAVYFCQQYETFGQGTKVEIK
B21: G001_gp1_V10_VRC01c_171 (antibody, V domains shown)
VH: QVQLVQSGAEVKRPGASVKVSCKASGYTFTDYYIHWVRQAPGQGLEWMGWINPNSGGTNYARKFQGRVTMTRHTSIGTAYMELSRLRSDDTAVYYCARHIVAAGTWAFDIWGQGTMVTVSS
VL: EIVLTQSPGTLSLSPGERATLSCRASQSVSSSYLAWYQQKPGQAPRLLIYGASSRATGIPDRFRGSGSGTDFTLTISRLEPEDFAVYYCQQYETFGQGTKVEIK
B22: G001_gp1_V10_VRC01c_183 (antibody, V domains shown)
VH: QVHPVQSGAEVKKPGASVKVSCEASGYTFSGYYMHWVRQAPGQGLEWMGWINLNSGGTNYAQKFQDRVTMTRDTSISTAYMELSSLRSDDTAFYYCAHNGGNGGTWYFHYWGQGTLVTVSS
VL: EIVLTQSPGTLSLSPGERATLSCRASQSVSNNYLAWYQQKPGQAPRLLIYGASRRATGIPDRFSGSGTGTDFTLTISRLEPEDSAVYYCQQYETFGPGTKVDIK
B23: G001_gp1_V10_VRC01c_172 (antibody, V domains shown)
VH: QVQLVQSGAEVKKPGASVKVSCKASGYTFTGYYFYWVRQAPGQGLEWMGWINPNSGGTNSPQKFQGRVSMTRDTSISTAYMEVSSLRSDDTAVYYCARRFTSMGVALDYWGQGTLVTVSS
VL: EIVLTQSPGTLSLSPGERATLSCRASQSVSSSSLAWYQQKPGQAPRLLIFGTSSRATGIPDRFSGSGSGTDFTLTISRLEPEDFAVYYCQQYDSFGQGTRLEIK
B24: G001_gp1_V10_VRC01c_2021-0092 (antibody, V domains shown)
VH: QVQLVQSGAEVKKPGASVKVSCKASGYTFTGYYMHWVRQAPGHGLEWMGWINPNSGGSNYAQRFQGWVTMTRDTSISTAYMELTRLRSDDTAVYYCARELLAAAGTVFDYWGQGTLVTVSS
VL: EIVLTQSPGTLSLSPGERATLSCRASQSVSSSYLAWYQQKPGQAPRLLIYGASSRATGIPDRFSGSGSGTDFTLTISRLEPEDFAVYYCQQYETFGQGTKVEIN
B25: G001_gp1_V10_VRC01c_184 (antibody, V domains shown)
VH: QVQLVQSGAEVKKPGASVKVSCKASGYTFTAYYMHWVRQAPGQGLEWMGWINPNSGGTNYAQKFQGRVTMTRDTSITTAYMELSRLRSDDTAVYYCAIESVVRHSWFDPWGQGTLVTVSS
VL: EIVLTQSPGTLSLSPGERATLSCRASQNVSSSYLAWYQQKPGQAPRLLIYYASIRATGIPDRFSGSGSGTAFTLTISRLEPEDFAVYYCQQYEAFGQGTKVEIK

The record followed here is publication PMC12377726 (Proceedings of the National Academy of Sciences of the …, 2025).

This assay has as its target eOD-GT8 (engineered outer domain germline-targeting version 8), monomer (HIV-1 gp120 engineered outer domain, …).
As to B1, the binding result is “binds”.
Take B2: the binding result was “binds”.
Next, B3: “binds”; B4: “binds”; B5: “binds”.
As to B6, the binding result is “binds”.
As for B7, the binding result is recorded as “binds”.
For the molecule B8, the binding result is “binds”.
With B9, the binding result is recorded as “binds”.
For the molecule B10, the binding result was “binds”.
Take B11: the binding result is recorded as “binds”.
Regarding B12, the binding result was “binds”.
As to B13, the binding result is reported as “binds”.
Consider B14, for which the binding result is on record as “binds”.
B15: the binding result is on record as “binds”.
With B16, the binding result is on record as “binds”.
Consider B17, for which the binding result is “binds”.
Consider B18, for which the binding result is listed as “binds”.
For the molecule B19, the binding result is “binds”.
As for B20, the binding result is listed as “binds”.
For the molecule B21, the binding result is “binds”.
As to B22, the binding result is “binds”.
Next, B23: “binds”; B24: “binds”; B25: “binds”.
